According to paper PMC10516056:
Values joined by “and” are separate entries in the source; they are usually repeats but may differ in a detail not shown here. Equal entries are not always repeated.

How the values were obtained:
[1] = target: SPARTA heterodimer (TIR-APAZ/short pAgo complex) from Crenotalea thermophila (Crenotalea thermophila); assay: cryo-EM structure
[2] = target: SPARTA heterodimer (TIR-APAZ/short pAgo complex) from Crenotalea thermophila (Crenotalea thermophila); assay: mass photometry

stoichiometry N [1]: 4 | stoichiometry N [2]: 2 and 4
Substance: SPARTA heterodimer (TIR-APAZ/short pAgo complex) from Crenotalea thermophila
